Assay results from PMC2911377.

Target: amino terminal enhancer of Split (AES), HA tagged (human) (UniProt Q08117)
UniProt Q08117, sequence (Q08117 whole entry): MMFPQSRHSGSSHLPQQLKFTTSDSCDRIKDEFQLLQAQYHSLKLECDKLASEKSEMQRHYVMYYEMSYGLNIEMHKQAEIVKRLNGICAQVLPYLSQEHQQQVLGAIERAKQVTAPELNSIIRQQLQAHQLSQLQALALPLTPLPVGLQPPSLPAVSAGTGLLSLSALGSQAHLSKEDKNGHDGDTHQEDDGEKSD

Work on “GFP-LRP6-ICD-myc-NLS (wild type LRP6-ICD with a nuclear localization signal) (domain or fragment)” yielded a repression of AES mediated TOP (TOPflash, TCF/LEF-1 luciferase reporter) transcription in HEK 293T cells co-transfected with AES-HA and GFP-LRP6-ICD-NLS, 24 hrs of 138%.
